Measurements published in US20070259417A1 (published 2007).
Ends that are not written are not given here.

Key:
trypsin [1] = target: trypsin (UniProt P00760); assay: pfu eluted from trypsin beads
[2] = target: T1, human neutrophil elastase (human, UniProt P08246 30-247); assay: pfu acid eluted from HNE beads
T1 construct: also called HNE; immobilized HNE
T1 sequence (looked up): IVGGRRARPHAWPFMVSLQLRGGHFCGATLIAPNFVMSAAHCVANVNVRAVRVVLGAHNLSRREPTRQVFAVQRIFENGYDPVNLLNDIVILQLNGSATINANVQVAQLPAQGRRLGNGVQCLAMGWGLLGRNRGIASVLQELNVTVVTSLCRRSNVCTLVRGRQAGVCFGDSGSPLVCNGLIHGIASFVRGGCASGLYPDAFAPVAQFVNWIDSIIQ

trypsin [3] = target: trypsin (UniProt P00760); assay: pfu acid eluted from trypsin beads
[4] = target: agarose-immobilized anhydro-trypsin (UniProt P00760); assay: pfu eluted from anhydrotrypsin beads
Chain of agarose-immobilized anhydro-trypsin (P00760 24-246): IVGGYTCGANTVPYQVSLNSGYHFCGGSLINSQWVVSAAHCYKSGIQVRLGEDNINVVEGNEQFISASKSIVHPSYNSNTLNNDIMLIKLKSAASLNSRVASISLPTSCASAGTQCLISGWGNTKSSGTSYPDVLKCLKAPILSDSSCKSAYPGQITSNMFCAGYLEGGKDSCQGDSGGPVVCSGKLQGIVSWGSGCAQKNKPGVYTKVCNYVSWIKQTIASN

[5] = target: agarose-immobilized anhydro-trypsin (UniProt P00760); assay: phage titer after incubation with anhydrotrypsin beads
[6] = target: agarose-immobilized anhydro-trypsin (UniProt P00760); assay: pfu acid eluted from anhydrotrypsin beads, experiment 1
[7] = target: agarose-immobilized anhydro-trypsin (UniProt P00760); assay: pfu acid eluted from anhydrotrypsin beads, experiment 2
M13mp18 phage [8] = assay: titer of M13MP18 after normal rabbit IgG
M13mp18 phage [9] = assay: titer of M13MP18 after normal rabbit IgG and protein A beads
[10] = target: agarose-immobilized streptavidin (UniProt P22629); assay: titer after 1 h with 5 ul immobilized streptavidin
Chain of agarose-immobilized streptavidin (P22629 37-163 limits assumed): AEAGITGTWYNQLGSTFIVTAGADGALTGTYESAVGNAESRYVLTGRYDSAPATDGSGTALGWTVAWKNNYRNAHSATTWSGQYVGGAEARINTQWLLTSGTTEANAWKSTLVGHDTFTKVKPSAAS

[11] = target: agarose-immobilized streptavidin (UniProt P22629); assay: titer after 2 h with 5 ul immobilized streptavidin
[12] = target: agarose-immobilized streptavidin (UniProt P22629); assay: titer after 4 h with 5 ul immobilized streptavidin
[13] = target: agarose-immobilized anhydro-trypsin (UniProt P00760); assay: titer after 1 h with 2 ul immobilized anhydro-trypsin
[14] = target: agarose-immobilized anhydro-trypsin (UniProt P00760); assay: titer after 1 h with 5 ul immobilized anhydro-trypsin
[15] = target: agarose-immobilized anhydro-trypsin (UniProt P00760); assay: titer after 2 h with 2 ul immobilized anhydro-trypsin
[16] = target: agarose-immobilized anhydro-trypsin (UniProt P00760); assay: titer after 2 h with 5 ul immobilized anhydro-trypsin
[17] = target: agarose-immobilized anhydro-trypsin (UniProt P00760); assay: titer after 4 h with 2 ul immobilized anhydro-trypsin
[18] = target: agarose-immobilized anhydro-trypsin (UniProt P00760); assay: titer after 4 h with 5 ul immobilized anhydro-trypsin
[19] = target: agarose-immobilized anhydro-trypsin (UniProt P00760); assay: titer after 1 h with 10 ul immobilized anhydro-trypsin
[20] = target: agarose-immobilized anhydro-trypsin (UniProt P00760); assay: titer after 2 h with 10 ul immobilized anhydro-trypsin
[21] = target: agarose-immobilized anhydro-trypsin (UniProt P00760); assay: titer after 4 h with 10 ul immobilized anhydro-trypsin
trypsin [22] = target: trypsin (UniProt P00760); assay: pH 2.2 eluate from immobilized active trypsin, bound in CBS pH 6.5
trypsin [23] = target: trypsin (UniProt P00760); assay: pH 2.2 eluate from immobilized active trypsin, bound in TBS pH 7.5
[24] = target: agarose-immobilized streptavidin (UniProt P22629); assay: dot blot of phage eluted at pH 2.2 from 5 ul immobilized streptavidin
[25] = target: agarose-immobilized anhydro-trypsin (UniProt P00760); assay: dot blot of phage eluted at pH 2.2 from 2 ul immobilized anhydro-trypsin
[26] = target: agarose-immobilized anhydro-trypsin (UniProt P00760); assay: dot blot of phage eluted at pH 2.2 from 5 ul immobilized anhydro-trypsin
[27] = target: agarose-immobilized anhydro-trypsin (UniProt P00760); assay: dot blot of phage eluted at pH 2.2 from 10 ul immobilized anhydro-trypsin
[28] = target: human Cathepsin G (human) (UniProt P08311); assay: Cat-G beads, pH 2.0 eluate
Chain of human Cathepsin G (human) (P08311 21-244 limits assumed): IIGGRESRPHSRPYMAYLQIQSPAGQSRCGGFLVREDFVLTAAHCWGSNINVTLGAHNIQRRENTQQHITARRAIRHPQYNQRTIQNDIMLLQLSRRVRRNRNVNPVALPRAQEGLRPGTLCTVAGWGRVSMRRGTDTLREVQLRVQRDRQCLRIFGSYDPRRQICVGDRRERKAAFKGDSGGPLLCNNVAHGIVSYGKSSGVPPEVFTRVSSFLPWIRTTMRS

[29] = target: human Cathepsin G (human) (UniProt P08311); assay: Cat-G beads, pH 2.5 eluate
[30] = target: human Cathepsin G (human) (UniProt P08311); assay: Cat-G beads, pH 3.0 eluate
[31] = target: human Cathepsin G (human) (UniProt P08311); assay: Cat-G beads, pH 3.5 eluate
[32] = target: human Cathepsin G (human) (UniProt P08311); assay: Cat-G beads, pH 4.0 eluate
[33] = target: human Cathepsin G (human) (UniProt P08311); assay: Cat-G beads, pH 4.5 eluate
[34] = target: human Cathepsin G (human) (UniProt P08311); assay: Cat-G beads, pH 5.0 eluate
[35] = target: human Cathepsin G (human) (UniProt P08311); assay: Cat-G beads, pH 5.5 eluate
[36] = target: human Cathepsin G (human) (UniProt P08311); assay: Cat-G beads, pH 6.0 eluate
[37] = target: human Cathepsin G (human) (UniProt P08311); assay: Cat-G beads, pH 7.0 eluate
[38] = target: human Cathepsin G (human) (UniProt P08311); assay: Cat-G beads, SUM of all pH elution fractions
[39] = target: T1, human neutrophil elastase; assay: HNE beads, abbreviated elution, pH 2.0
Procedure: (§1) To test if the changes at positions 15, 16, 18, and 19 of the ITI-DI-III fusion protein influence binding of display phage to HNE beads, abbreviated pH elution profiles were measured. […] The beads were washed and phage were eluted as described (Example III), except that only three pH elutions were performed: pH 7.0, 3.5, and 2.0.

[40] = target: T1, human neutrophil elastase; assay: HNE beads, abbreviated elution, pH 3.5
Procedure: as §1

[41] = target: T1, human neutrophil elastase; assay: HNE beads, abbreviated elution, pH 7.0
Procedure: as §1

[42] = target: T1, human neutrophil elastase; assay: HNE beads, abbreviated elution, SUM of pH fractions
Procedure: as §1

[43] = target: T1, human neutrophil elastase; assay: extended pH elution from HNE beads
Procedure: To test if phage displaying the ITI-DI-III fusion protein interact strongly with the proteases human neutrophil elastase (HNE) or cathepsin-G, aliquots of display phage were incubated with agarose-immobilized HNE or cathepsin-G beads (HNE beads or Cat-G beads, respectively). […] The procession in lowering pH during the elution was: pH 7.0, 6.0, 5.5, 5.0, 4.5, 4.0, 3.5, 3.0, 2.5, and 2.0. Following elution and neutralization, the various input, wash, and pH elution fractions were titered.

[44] = target: T1, human neutrophil elastase; assay: abbreviated pH elution from HNE beads
Procedure: as §1

Chain of trypsin (P00760 24-246): as the sequence (P00760 24-246) above

## M13mp18 phage
Trypsin [1]
  binding relative to M13MP18: 1 fold
  eluted phage, percent of input: 0.00023%
[2]
  binding relative to M13MP18: 1 fold
  eluted phage, percent of input: 0.0003%
Trypsin [3]
  binding relative to M13MP18: 1 fold
  eluted phage, percent of input: 0.0005%
[4]
  binding relative to M13MP18: 1 fold
  eluted phage, percent of input: 0.1%
[5]
  pfu after incubation as percent of input: 121%
[6]
  binding relative to M13MP18: 1 fold
  eluted phage, percent of input: 0.2%
[7]
  binding relative to M13MP18: 1 fold
  eluted phage, percent of input: 0.3%

## normal rabbit IgG / normal rabbit serum (antibody)
M13mp18 phage [8]
  percent of input phage (pfu): 104%
M13mp18 phage [9]
  percent of input phage (pfu): 88%

## MK phage
[10]
  percent residual titer: 106%
[11]
  percent residual titer: 96%
[12]
  percent residual titer: 98%
[13]
  percent residual titer: 97%
[14]
  percent residual titer: 110%
[15]
  percent residual titer: 103%
[16]
  percent residual titer: 111%
[17]
  percent residual titer: 95%
[18]
  percent residual titer: 96%
[19]
  percent residual titer: 99%
[20]
  percent residual titer: 93%
[21]
  percent residual titer: 106%
Trypsin [22]
  percent of input phage: 0.00028%
  total pfu recovered in elution buffer: 1.35e+06 pfu
Trypsin [23]
  percent of input phage: 0.00034%
  total pfu recovered in elution buffer: 1.48e+06 pfu
[24]
  percent of total phage recovered in elution buffer: < 1%
[25]
  percent of total phage recovered in elution buffer: < 1%
[26]
  percent of total phage recovered in elution buffer: < 1%
[27]
  percent of total phage recovered in elution buffer: < 1%

B1: MA-ITI phage (other, human, UniProt P02760 227-281, looked up)
chain: KEDSCQLGYSAGPCMGMTSRYFYNGTSMACETFQYGGCMGNGNNFVTEKECLQTC
notes: residue range counts on the mature ITI light chain (UTI), not on the AMBP precursor entry; also called MA-ITI 2; MA-ITT; not shown: M13 gene III protein, mature
[28]
  fraction of input: 7e-07
  total pfu in sample: 320000 pfu
[29]
  fraction of input: 5.9e-07
  total pfu in sample: 270000 pfu
[30]
  fraction of input: 7.8e-07
  total pfu in sample: 360000 pfu
[31]
  fraction of input: 9.6e-07
  total pfu in sample: 440000 pfu
[32]
  fraction of input: 9.6e-07
  total pfu in sample: 440000 pfu
[33]
  fraction of input: 1.5e-06
  total pfu in sample: 670000 pfu
[34]
  fraction of input: 2.4e-06
  total pfu in sample: 1.1e+06 pfu
[35]
  fraction of input: 2.6e-06
  total pfu in sample: 1.2e+06 pfu
[36]
  fraction of input: 5e-06
  total pfu in sample: 2.3e+06 pfu
[37]
  fraction of input: 1.3e-05
  total pfu in sample: 6.1e+06 pfu
[38]
  fraction of input: 3e-05
  total pfu in sample: 1.4e+07 pfu
[39]
  fraction of input: 1e-06
[40]
  fraction of input: 3e-06
[41]
  fraction of input: 1e-05
[42]
  fraction of input: 1.4e-05

B2: MA-ITI-E7 phage (designed binder)
chain: KEDSCQLGYSAGPCVAMFPRYFYNGTSMACETFQYGGCMGNGNNFVTEKECLQTCR
modifications: not fully specified; cysteine pairing not given here
notes: two phage strains (1 and 2) of the same construct were tested; also called MA-ITI-E7 1; MA-ITI-E7 2; not shown: The join to the display carrier
[43]
  fold lower total fraction of input eluted than EpiNE-7 phage: ~40 fold
[44]
  fold greater total fraction of input eluted than MA-ITI phage: 10 fold
  fold lower total fraction of input eluted than EpiNE-7 phage: 40 fold
[40]
  fraction of input: 8e-05
